Results as given in paper PMC5045792.

Experiments:
[1] = molecular target: ToxR-TM-MBP chimera with the transmembrane domain of the FtsI homolog annotated for S. pyogenes (S. pyogenes)
[2] = molecular target: ToxR-TM-MBP chimera with the transmembrane domain of the FtsI homolog annotated for S. pneumoniae (S. pneumoniae); assay: TOXGREEN

**Q.** Which GFP expression, percent of GpA [1] does the source give for “ToxR-TM-MBP chimera with the transmembrane domain of the FtsI homolog annotated for S. pyogenes (domain or fragment)” here?
**A.** > 100 % of GpA

**Q.** With “ToxR-TM-MBP chimera with the transmembrane domain of the FtsI homolog annotated for S. pneumoniae (domain or fragment)” as the substance, how does the GFP expression, percent of GpA [2] read?
**A.** > 100 % of GpA
